Test system: K4 kissing-loop RNA reporter
Assay: apparent KD of K4 kissing-loop reporter; higher = weaker reporter binding
Details: Eterna round: R107
Experimental: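 RNA-MaP round R107: designed RNA switches with theophylline, tryptophan, arginine or FMN aptamers are transcribed on-chip within common flanks. They are titrated with a labelled K4 kissing-loop RNA reporter in RNA-MaP buffer (100 mM Tris pH 7.5, 80 mM KCl, 4 mM MgCl2), without ligand or with the indicated ligand. Median apparent KD per design.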

[1] = input ligand: theophylline 20 uM
[2] = input ligand: tryptophan 2.4 mM
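Also: bound reporter read as fluorescence of individual clusters on recovered sequencing chips by microscopy, with normalized cluster intensities fitted with a binding model.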

Sequence | apparent KD of K4 kissing-loop reporter (input ligand: FMN 200 uM) | apparent KD of K4 kissing-loop reporter (input ligand: arginine 13.2 mM) | apparent KD of K4 kissing-loop reporter (input ligand: none) | apparent KD of K4 kissing-loop reporter [1] | apparent KD of K4 kissing-loop reporter [2]
CCAGUUUGAGUGAUGUUCAGGCAUUGGUACGAGGAUAUCGAGGAGUUGAGAAGGCGUACUACUCAACUAUGUAUGAAUACAUACC [FMN A Ex t2] | 224 nM | 89 nM | 125 nM | 126 nM | 116 nM
CCAUCGCUAUUCGAUACCAGUCAUUUUUUAUUUUAUUUUUUUUUUGGAGUGAUGUUCCAAGACCCUUGGCAGCGAAUAGUGAUGG [whbob_SS_Theo_B_th78] | 119 nM | 130 nM | 113 nM | 139 nM | 106 nM
CCAUUCAUUUACGAUACCAGUCUAAUAUAUUUAAUCAAAACCCUCGCCGAGUGAUGUUCGGACCCUUGGCAGCGUCUGCGACAGG [cyycmullin] | 354 nM | 333 nM | 334 nM | 399 nM | 227 nM
CCGAAGAACCAGUGAUGUUGGUUGACUAGACAGGAUAUGAGCAACAUCAGAAGGGUCUGGCUUCGGGAGUGAGUCGCGCUGACUU [Reverigeed] | 260 nM | 192 nM | 319 nM | 254 nM | 314 nM
CCGGACACCUCGGAUACCAGCCUGAGUGAUGUUCAAGCUGAACUCUCUUAAUAGGUCACCGGCCCUUGGCAGCCGCAUCCUAAGC [theeternabot_exclusion_KL_Theo_B_46] | 375 nM | 269 nM | 353 nM | 310 nM | 313 nM
CCGGAUUAUGCGGCCGCCACUGAGAAAUUGGAGGUACGCCCUCCCGAUAGUGAUGUUAUCCAUUACAGGACCGGGCAUCUCCUCU [theeternabot_sameState_KL_Trp_B_23] | 779 nM | 421 nM | 893 nM | 500 nM | 325 nM
CCUAUCUCAUACGAUACCAGUCCGAGUGAUGUUCGAACAUAAAUUAGUUUGCCAUAUAAUGACCCUUGGCAGCGUAUGGGAUAGG [Ex Theophylline B K4 12] | 576 nM | 448 nM | 550 nM | 623 nM | 522 nM
CGAAUGGAACUAUUGAACAUUUGUAUUGGCAAGGAUAUCGGGCUAUCGAGAAGGUGCUAUUUGGGCAGUGAUGUUGCCGAUUUAA [theeternabot_sameState_KL_FMN_A_10] | 43.3 nM | 94.4 nM | 54.1 nM | 90.9 nM | 50 nM
CGAGCGCGUGCGGCCGCCACUACUAUAAGUCGUCCAAGUUAGUGAUGUUGACUGAACGUCGGAAAUAGGACCGGGCAUAGUUUUA [theeternabot_sameState_KL_Trp_B_40] | 351 nM | 410 nM | 420 nM | 415 nM | 300 nM
CGAGUCGGUUCAGAUACCAGCCAAUUAGAGUCGAGUGAUGUUCGACAAUGAACGUCCAAAGGCCCUUGGCAGCUGGAUUGGGAAC [Same State Theophylline B GF 20] | 157 nM | 61.1 nM | 104 nM | 112 nM | 171 nM
CGAGUGAUGUUCGUUUUUUACUUUUUUUGACAGGAUAUGCGGAAACGCAGAAGGGUCACCUUUGAGUUAAAAGAAGUUAUUUUUU [Ex FMN A 18] | 262 nM | 267 nM | 317 nM | 271 nM | 249 nM
CGAUGUUCCUGGGAUACCAGUCGGAGUCUCAGAGCUCGGAGUGAUGUUCUGGGAUGUUUCGGCCCUUGGCAGCUCUGGGACUCCU [#2 Exclusion - Theophylline B Attempt #22 (HarryS)] | 881 nM | 630 nM | 819 nM | 840 nM | 662 nM
CGCAGUGAUGUUGCGAGUAGCUACAGGGAAGGAGCGUGCUAGAGCACAGGUAGGUCGCCCACUGGGUCAGUGAUGUUGGUCGGGU [Same State Arginine A GF 29] | 201 nM | 166 nM | 180 nM | 171 nM | 171 nM
CGCAGUGAUGUUGCUAUUAUUCUUGAUUAACGAGGACCGGUACGGCCGCCACUCGGUUUCUAUCUGAUCCAGCGUUUUGUUGAGU [#23 K4 Tryptophan A Exclusion] | 474 nM | 562 nM | 638 nM | 620 nM | 335 nM
CGCAGUGAUGUUGCUAUUAUUCUUGGUUAACGAGGACCGGUACGGCCGCCACUCGAUUUCUGUCUAGUCCAGUGUUUUUUUGAGU [whbob_EX_Tryp_A_t7] | 363 nM | 464 nM | 439 nM | 492 nM | 263 nM
CGCAUACCUGCGCUAGUAGUGAUGUUACAGCGAGGACCGGUACGGCCGCCACUCGUGACGGUCGCAAAACGCGUUGCAGAACACU [theeternabot_exclusion_KL_Trp_A_32] | 342 nM | 183 nM | 247 nM | 253 nM | 322 nM
CGCCGCAACUGAAGGAGCGCGCCAGUGAUGUUGGACGGCUUUGUCAAGGAAACUGCACCGGUGCAGGUAGGUCGCAGUUCGCGGU [Dilea] | 278 nM | 291 nM | 297 nM | 253 nM | 252 nM
CGCCGGAAGGCGGUCGCUCCCACUCCGGAAGGAGCGCCCGGAAGGGCAGGUAGGUCGCCGGAGUGAUGUUCCGGUGGAGGGACCG [#2 Exclusion - Arginine A Attempt #10 (Inspired by Omei)] | 230 nM | 117 nM | 113 nM | 111 nM | 109 nM
CGCGAGUCCUUUCAGUGAGUGAUGUUUACGCGAGGACCGGUACGGCCGCCACUCGAUGGUAUACCAAGACAUCAGCAGAUUGUCU [theeternabot_exclusion_KL_Trp_A_18] | 304 nM | 304 nM | 321 nM | 387 nM | 342 nM
CGCGCGCGUUUGAGAGGGUGCGCGCGAAGUGAGGAUAUUUAGGGAGAAAGAAGGCACUAUAAAAUAUAGUGAUGUUAUAUAAGGG [SSFMNA.G] | 431 nM | 114 nM | 382 nM | 187 nM | 344 nM
CGCGCGGGUUGAGAGGUUCGCGCGAAUGAUACCAGUAUAUAAGAAUACCCUUGGCAGCAUAAGAAAGAUAUAGUGAUGUUGUAUA [SSTheophA.G] | 408 nM | 211 nM | 262 nM | 355 nM | 262 nM

Sequence | apparent KD of K4 kissing-loop reporter (input ligand: FMN 200 uM) | apparent KD of K4 kissing-loop reporter (input ligand: arginine 13.2 mM) | apparent KD of K4 kissing-loop reporter (input ligand: none) | apparent KD of K4 kissing-loop reporter [1] | apparent KD of K4 kissing-loop reporter [2]
CGCGCGUGAGGACUUGCCCUUCAUGGAGAUACCAGCCAGUAUGCGGGCCCUUGGCAGCUCGAGUGAUGUUCGAGUUUAAGGCAAA [Riesla] | 130 nM | 113 nM | 115 nM | 114 nM | 108 nM
CGCGGCCCGCCGGAUACCAGUGACCCGCGGGAAACCGCGGGCCCAGAGUGAUGUUCGGGACACCCUUGGCAGCCGCCUGGGCGUG [#2 Same State - Theophylline B Attempt #1 (HarryS)] | 567 nM | 325 nM | 620 nM | 1000 nM | 424 nM
CGGAUGUAGUGAUGUUAUAUUAGAUGUAGACGAGGACCGGUACGGCCGCCACUCGUGACGGCUGCUAGCGCGUUGCGAGGUUUGC [ExTryptoA.Cn] | 716 nM | 488 nM | 758 nM | 518 nM | 543 nM
CGUGUAAUGUGGAGAUUUGAAAAGGCGCAUCGAGGACCGGUACGGCCGCCACUCGCUACGAGCUAGUGAUGUUGGCUCGUUCGGA [theeternabot_sameState_KL_Trp_A_23] | 238 nM | 209 nM | 210 nM | 252 nM | 194 nM
CGUUUAUAGCAGGAUACCAGUACCCAUUAAGUACGUUAAUAGUAGAGUGAUGUUCUAAAGUACCCUUGGCAGCUUCCCGUGACCC [ExTheophylB.X] | 103 nM | 164 nM | 124 nM | 176 nM | 94.1 nM
CGUUUAUAGCAGGAUACCAGUACCCAUUAUGUACGUUAAUAGUAGAGUGAUGUUCUAAAGUACCCUUGGCAGCUUCCCGUGACCC [ExTheophylB.Y] | 119 nM | 183 nM | 140 nM | 176 nM | 94.7 nM
CUAAGGGAAGCAGGAUAUCGGUAUUAGUGUGUUAAAUAAACACUCGGGUAGUGAUGUUGCCCGUGGCGAGAAGGGCUACCAUUGG [Laace] | 33.6 nM | 44.8 nM | 48.7 nM | 41.4 nM | 47.3 nM
CUAUAAGUGCCGAGUGAUGUUCGGCCAAUACGAGGACCGGUACGGCCGCCACUCGGUCAGUCGGUGCCCACCGGGCAUGGCUGAC [Ortima] | 186 nM | 237 nM | 205 nM | 213 nM | 113 nM
CUAUAGACCCUUCGGAUAGUGAUGUUGUCACGAGGACCGGUACGGCCGCCACUCGCUGCCACCAUACCGCUUCACGGAACGAGCA [theeternabot_exclusion_KL_Trp_A_7] | 483 nM | 429 nM | 503 nM | 599 nM | 169 nM
CUAUGAGUGAUGUUCGUAGGUUGGGCUUGGCAGGAUAUGGGAUCUUCCAGAAGGGCCGAUUCCGGCGAGUGAUGUUCGUUGGUCU [Exclusion FMN A GF30] | 41.7 nM | 42.1 nM | 50.1 nM | 43.2 nM | 43.9 nM
CUAUGGAAACAUAGUAGUCGGGAAACCGAUACCAGUAUGGAAACAUACCCUUGGCAGCGGAAUGAUUAAACGGAGUGAUGUUCCG [Theophylline A K4 18] | 279 nM | 276 nM | 292 nM | 223 nM | 250 nM
CUAUUUCGCGUGGAUACCAGCGGUCGUAAAAUGUCAGUGAUGUUGAAGAGGAAAAGAGCUCGCCCUUGGCAGCCAUUCCGCACUA [theeternabot_sameState_KL_Theo_B_34] | 591 nM | 363 nM | 568 nM | 446 nM | 399 nM
CUCGUGGGUUUGAGAGGGCUUGUGGGAAGUGAGGAUAUUUAGGGAGGGAGAAGGUACUAUAGAAUAUAGUGAUGUUAUAUAUGGG [SSFMNA.U] | 264 nM | 138 nM | 185 nM | 111 nM | 147 nM
CUCUAGGCGCUCGCGUGAGUGAUGUUUACGCGAGGACCGGUACGGCCGCCACUCGCAGACUGGGUGUAAGCGGAGCUGUAUGCCC [theeternabot_exclusion_KL_Trp_A_12] | 277 nM | 158 nM | 212 nM | 174 nM | 223 nM
CUUGGAAGGACGGCCGCCACUCGACAGUGAUGUUGUCCGAGUGGGUAGCGCAGUGAUGUUGUGUCGAGGACCGGGUCCUAGGAAU [Exclusion Tryptophan B GF 27] | 185 nM | 149 nM | 170 nM | 155 nM | 137 nM
CUUGGAAGGACGGCCGCCACUCGACGGAGUGAUGUUCCGUGUGGGUAGCGCAGUGAUGUUGUGUCGAGGACCGGGUCCUAGGAAU [Exclusion Tryptophan B GF 28] | 181 nM | 115 nM | 143 nM | 160 nM | 77.7 nM
GAACAUAGUAAAGGAUAUUCCUGCCUCGCGCGAUUGAUUAGUGAUGUUGACGAUAUCGCUUUGAGGGAAGAAGGUUAACAAGUCA [theeternabot_exclusion_KL_FMN_B_4] | 761 nM | 659 nM | 678 nM | 478 nM | 596 nM
GAACGGCGGGCGGCCGCCACUGGUAUACGAGUGAUGUUCGGAUAUACAUAAAAUAAGGUAAUUAACAGGACCGGGUCAGAGCCGG [Tryptophan B Same State; Euphoria Solution] | 138 nM | 130 nM | 165 nM | 142 nM | 118 nM
GAAGGUCAAAGACCUUCGUGCACAUCUGAUACCAGUCGCGAAAGCGACCCUUGGCAGCAGGGCAGUGAUGUUGCCAGUGCACAAA [Omei KL Theo A SS A v4] | 255 nM | 221 nM | 273 nM | 168 nM | 253 nM
GAAUUAAUGUCUUUAAUAUAAUAAUCAGAUACCAGUGAUUUGUGACACCCUUGGCAGCUGUAUAGAGUGAUGUUCUUAUACAUAA [#12 K4 Theophylline A Exclusion] | 352 nM | 460 nM | 409 nM | 509 nM | 279 nM
GACACACUUUCAGGUGUCCAGUGACUGGAUACCAGCAUGGAAACAUGCCCUUGGCAGCCAGAACUGGAAGUGAUGUUUCCAGUAA [Theo A Mod Design7 (Brourd)] | 380 nM | 241 nM | 346 nM | 262 nM | 330 nM

Reference: the supplement of paper PMC9170038
